Experimental data published in patent US20220324997A1.

Biological target: CD55 on healthy donor erythrocytes (human) (UniProt P08174)
Experiment: flow cytometry on healthy donor erythrocytes, mAb at 10 µg/ml, positive control

Sequence of UniProt P08174 (P08174 35-353): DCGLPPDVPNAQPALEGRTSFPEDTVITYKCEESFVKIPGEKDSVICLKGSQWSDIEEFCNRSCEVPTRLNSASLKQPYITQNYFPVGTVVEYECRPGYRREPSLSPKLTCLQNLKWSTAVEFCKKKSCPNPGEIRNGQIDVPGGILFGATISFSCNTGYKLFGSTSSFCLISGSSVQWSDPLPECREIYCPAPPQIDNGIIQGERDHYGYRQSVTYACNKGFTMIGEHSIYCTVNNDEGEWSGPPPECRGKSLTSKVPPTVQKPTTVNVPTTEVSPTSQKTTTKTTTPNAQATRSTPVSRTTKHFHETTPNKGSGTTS

Gm (geometric mean fluorescence): 202
Substance: 791T/36 (anti-CD55 mAb) (antibody)
